US20250289905A1 (MIRIMGENE, published 2025)
Changes are numbered by the printed parent chain. Names may count otherwise.

T1: rat-derived WARS1 recombinant protein (rat, UniProt Q6P7B0 1-481, limits assumed)
T1 construct: Recombinant, His-tagged (detected with anti-His tag antibody); construct not described; also called rat WARS1
T1 sequence (looked up): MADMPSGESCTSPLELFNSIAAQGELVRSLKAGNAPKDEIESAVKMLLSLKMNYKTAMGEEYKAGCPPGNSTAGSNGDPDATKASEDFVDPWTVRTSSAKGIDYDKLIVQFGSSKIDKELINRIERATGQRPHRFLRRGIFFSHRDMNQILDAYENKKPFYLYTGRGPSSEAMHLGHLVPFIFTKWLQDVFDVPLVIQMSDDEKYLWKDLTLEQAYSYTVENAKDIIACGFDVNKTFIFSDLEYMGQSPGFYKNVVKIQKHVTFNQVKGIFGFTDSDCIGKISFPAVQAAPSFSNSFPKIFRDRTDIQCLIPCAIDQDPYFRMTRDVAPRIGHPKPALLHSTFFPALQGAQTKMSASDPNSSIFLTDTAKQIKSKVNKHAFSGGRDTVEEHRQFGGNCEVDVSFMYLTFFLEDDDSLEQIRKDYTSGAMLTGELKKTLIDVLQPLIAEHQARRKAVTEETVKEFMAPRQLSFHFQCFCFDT

T2: mouse-derived WARS1 recombinant protein (mouse, UniProt P32921 1-481, limits assumed)
T2 construct: Recombinant, His-tagged (detected with anti-His tag antibody); construct not described; In the western blot also secreted WARS1 from J774A.1 supernatant and mouse serum; also called mouse WARS1
T2 sequence (looked up): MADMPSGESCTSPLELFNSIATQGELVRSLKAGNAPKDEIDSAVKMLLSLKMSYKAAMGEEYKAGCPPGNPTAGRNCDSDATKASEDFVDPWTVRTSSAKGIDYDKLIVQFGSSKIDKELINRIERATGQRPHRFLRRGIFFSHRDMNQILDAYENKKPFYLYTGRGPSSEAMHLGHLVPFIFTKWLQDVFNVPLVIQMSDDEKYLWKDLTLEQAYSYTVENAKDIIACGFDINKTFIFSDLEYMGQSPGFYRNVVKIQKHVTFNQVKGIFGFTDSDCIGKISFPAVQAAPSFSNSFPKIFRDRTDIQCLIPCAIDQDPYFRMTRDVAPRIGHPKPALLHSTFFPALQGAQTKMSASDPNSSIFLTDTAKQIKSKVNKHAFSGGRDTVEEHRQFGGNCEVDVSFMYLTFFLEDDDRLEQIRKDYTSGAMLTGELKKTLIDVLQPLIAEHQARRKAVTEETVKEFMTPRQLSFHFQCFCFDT

T3: human WARS1 recombinant protein (human, UniProt P23381 2-471, limits assumed)
T3 construct: Recombinant protein, detected with an anti-His tag antibody; In the western blot also secreted WARS1 from THP-1 supernatant and human serum; also called human-derived WARS1 recombinant protein
T3 sequence: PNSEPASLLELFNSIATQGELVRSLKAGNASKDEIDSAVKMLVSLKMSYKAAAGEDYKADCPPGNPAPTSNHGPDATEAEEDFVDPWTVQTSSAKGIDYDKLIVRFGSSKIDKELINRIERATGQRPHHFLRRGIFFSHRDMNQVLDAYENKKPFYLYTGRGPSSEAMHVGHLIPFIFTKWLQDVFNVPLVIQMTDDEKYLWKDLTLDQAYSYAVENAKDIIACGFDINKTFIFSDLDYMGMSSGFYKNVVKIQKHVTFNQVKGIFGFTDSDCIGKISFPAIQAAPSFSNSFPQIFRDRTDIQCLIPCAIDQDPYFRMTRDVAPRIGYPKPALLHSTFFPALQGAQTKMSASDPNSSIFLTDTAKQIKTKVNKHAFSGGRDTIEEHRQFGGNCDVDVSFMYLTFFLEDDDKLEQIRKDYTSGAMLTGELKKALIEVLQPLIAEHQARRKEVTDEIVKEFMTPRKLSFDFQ

T4: pig-derived WARS1 recombinant protein (pig) (UniProt K9IVV5)
T4 sequence: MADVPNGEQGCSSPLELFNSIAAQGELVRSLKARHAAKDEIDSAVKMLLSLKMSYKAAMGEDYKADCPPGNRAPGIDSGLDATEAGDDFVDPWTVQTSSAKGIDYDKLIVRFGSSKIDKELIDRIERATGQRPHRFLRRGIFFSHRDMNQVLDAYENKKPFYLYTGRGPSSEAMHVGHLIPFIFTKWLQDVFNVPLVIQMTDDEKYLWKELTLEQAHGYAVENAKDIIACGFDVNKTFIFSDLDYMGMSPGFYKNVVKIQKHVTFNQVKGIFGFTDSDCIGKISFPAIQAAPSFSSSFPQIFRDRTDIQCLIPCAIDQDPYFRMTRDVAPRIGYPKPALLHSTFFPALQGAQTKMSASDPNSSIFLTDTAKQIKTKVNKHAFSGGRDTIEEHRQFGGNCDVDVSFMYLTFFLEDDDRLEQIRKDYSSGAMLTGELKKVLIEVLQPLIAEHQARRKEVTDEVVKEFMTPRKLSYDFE

B1: H54K (antibody, V domains shown)
VH: EVQLLESGGGLVQPGGSLRLSCAASGFTFSSYDMSWVRQAPGKGLEWVSAISSGGSSIYYADSVKGRFTISRDNSKNTLYLQMNSLRAEDTAVYYCARDVAWDMLGDFDYWGQGTLVTVSS
VL: QSVLTQPPSASGTPGQRVTISCTGSSSNIGSNYVYWYQQLPGTAPKLLIYANSKRPSGVPDRFSGSKSGTSASLAISGLRSEDEADYYCGAWDDSLSAYVFGGGTKLTVLT
notes: L-CDR2 variant of GKB101; also called H54K antibody; M105A
B2: H54Q (antibody, V domains shown)
VH: B1 VH
VL: B1 VL with K54Q
notes: L-CDR2 variant of GKB101; also called H54Q antibody
B3: S53Q (antibody, V domains shown)
VH: B1 VH
VL: B1 VL with S53Q, K54H
notes: L-CDR2 variant of GKB101; also called S53Q antibody
B4: S53V (antibody, V domains shown)
VH: B1 VH
VL: B1 VL with S53V, K54H
notes: L-CDR2 variant of GKB101; also called S53V antibody
B5: SHL/ILN (antibody, V domains shown)
VH: B1 VH
VL: B1 VL with S53I, K54L, L96N
notes: L-CDR2 and L-CDR3 variant of GKB101; also called SHL/ILN antibody
B6: SHL/LLN (antibody, V domains shown)
VH: B1 VH
VL: B1 VL with S53L, K54L, L96N
notes: L-CDR2 and L-CDR3 variant of GKB101; also called SHL/LLN antibody
B7: SHL/QLN (antibody, V domains shown)
VH: B1 VH
VL: B1 VL with S53Q, K54L, L96N
notes: L-CDR2 and L-CDR3 variant of GKB101; also called SHL/QLN antibody
B8: S53L (antibody, V domains shown)
VH: B1 VH
VL: B1 VL with S53L, K54H
notes: L-CDR2 variant of GKB101; also called S53L antibody

molecular target: T1, rat-derived WARS1 recombinant protein; experiment: direct ELISA
Experimental: (§1) Specifically, for direct ELISA, a 96-well plate (Maxisorp, Thermo Fisher) was coated with WARS1 having a 1 μg/ml concentration of a recombinant protein derived from human, marmoset (NHP), mouse, rat, and pig, and then blocked with PBS containing 1% BSA at room temperature for 1 hour. The GKB101 antibody or a variant antibody thereof was diluted in a concentration-dependent manner, added to each coated well, reacted at room temperature for 1 hour, and then washed four times with PBST (PBS+Tween20). Each well was treated and reacted for 1 hour with an antibody (anti-Human IgG, cell signaling) to which HRP is attached, and then washed with PBST. Lastly, after developing with a TMB substrate (BD), its absorbance was measured at 490 nm (NIVO) (FIGS. 4a to 5).

Kd | Binder
~1 pM | B1
~1 pM | B2
~1 pM | B3
~1 pM | B4
~1 pM | B5
~1 pM | B6
~1 pM | B7

molecular target: T2, mouse-derived WARS1 recombinant protein; experiment: direct ELISA
Experimental: as §1

Kd | Binder
~1 pM | B1
~1 pM | B2
~1 pM | B3
~1 pM | B4
~1 pM | B5
~1 pM | B6
~1 pM | B7

molecular target: T3, human WARS1 recombinant protein; experiment: direct ELISA
Experimental: as §1

Kd | Binder
~1 pM | B1
~1 pM | B3
~1 pM | B5
~1 pM | B6
~1 pM | B7

molecular target: T3, human WARS1 recombinant protein; experiment: western blot; recombinant protein, THP-1 culture supernatant, human serum
Experimental: (§2) At this time, a WARS1 recombinant protein (human, mouse, pig, marmoset (NHP), or rat-derived), cell culture medium, and human or mouse serum were used as WARS1 protein samples. In particular, the cell culture medium was used by treating the human monocyte cell line, THP-1, or the mouse macrophage cell line, J774.1A, with LPS (lipopolysaccharide, 100 ng/ml) for 24 hours to induce an inflammatory response, and then the cell culture supernatant was obtained for use.
(§3) 30 μg of each of the WARS1 recombinant protein (human, mouse, pig, marmoset (NHP), or rat-derived), the cell supernatant obtained using the method above, and mouse or human serum was loaded onto 8% SDS-PAGE, then transferred to a PVDF membrane (Millipore). Afterwards, the membrane was reacted with 1 μg/ml of GKB101 or a variant antibody thereof for 1 hour each, then washed with TBST (TBS+Tween20) three times. Afterwards, it was reacted with a secondary antibody (anti-human IgG HRP, Millipore) for 1 hour, then washed with TBST three times to be treated with ECL (West® bright ECL, Advanta) to identify its protein expression (LAS-4000, Fujifilm).

binding result | Binder
binds | B2
binds | B4

molecular target: marmoset (NHP)-derived WARS1 recombinant protein (marmoset (NHP)) (UniProt U3CR73); experiment: direct ELISA

Kd | Binder
1 pM | B5
1 pM | B6
1 pM | B7

molecular target: T4, pig-derived WARS1 recombinant protein (pig); experiment: direct ELISA

Kd | Binder
1000 pM | B1
1000 pM | B2
1000 pM | B8
1000 pM | B3
1000 pM | B4

molecular target: T2, mouse-derived WARS1 recombinant protein; experiment: western blot; recombinant protein, J774A.1 culture supernatant, mouse serum
Experimental: as §2, §3

binding result | Binder
binds | B8

molecular target: T1, rat-derived WARS1 recombinant protein; experiment: western blot; recombinant protein
Experimental: as §2, §3

binding result | Binder
binds | B8

molecular target: T3, human WARS1 recombinant protein; experiment: cell-based or functional assay

secretion of TNF-α in mouse macrophage J774A.1 cells | Binder
≥ 40% | B1
≥ 40% | B8
≥ 40% | B3
≥ 40% | B6
≥ 40% | B7
